Results taken from patent publication US20100227805A1.

Tests used:
Assay in all cases: cell-based or functional assay
[1] = molecular target: human MIP-1α (CCL3) (human) (UniProt P10147)
[2] = molecular target: murine RANTES (CCL5) (murine) (UniProt P30882)
[3] = molecular target: murine MIP-1β (CCL4) (murine) (UniProt P14097)
Chain of murine MIP-1β (CCL4) (murine) (P14097 24-92 limits assumed): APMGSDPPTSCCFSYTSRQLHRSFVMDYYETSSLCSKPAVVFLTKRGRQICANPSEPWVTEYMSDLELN

Chain of human MIP-1α (CCL3) (human) (P10147 27-92 limits assumed): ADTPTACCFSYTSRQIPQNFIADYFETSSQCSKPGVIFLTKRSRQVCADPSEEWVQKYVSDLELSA
Chain of murine RANTES (CCL5) (murine) (P30882 24-91 limits assumed): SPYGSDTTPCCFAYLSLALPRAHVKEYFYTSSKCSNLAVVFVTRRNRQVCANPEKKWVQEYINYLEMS

| inhibition of chemokine-induced THP-1 cell migration (transwell chemotaxis assay) [1] [%] | inhibition of chemokine-induced THP-1 cell migration (transwell chemotaxis assay) [2] [%] | inhibition of chemokine-induced THP-1 cell migration (transwell chemotaxis assay) [3] [%] | Substance |
| --- | --- | --- | --- |
| 50 |  |  | hCCR5(EC2)-IgG (Fc fusion) |
|  | 50 | 50 | mCCR5(EC3)-IgG (Fc fusion) |
